Results taken from paper PMC5794792.

Experiments:
[1] = target: Bovine α-chymotrypsin (bovine); test: enzyme inhibition kinetics (progress curves); inhibition of chymotrypsin by several serpin concentrations followed over time at 25 °C; slope of kobs against inhibitor concentration, corrected for non-productive turnover (k'ass); protease assay buffer pH 8.0 with chromogenic substrate
[2] = target: Bovine α-chymotrypsin (bovine); test: complex dissociation followed by regain of protease activity; 5 µM serpin-chymotrypsin complex diluted 200–2000-fold (0–25 nM) into assay buffer with substrate, 25 °C; apparent rate constant k_(diss,app)

- kon [1]: 690000 M⁻¹ s⁻¹
- koff [2]: 7.5e-06 s⁻¹
Substance: α1-antitrypsin (from UniProt P01009 25-418) (natural protein)
